The text below walks through data of patent publication US6462173B1, “Inhibitors of phosphoserine and phosphothreonine-proline-specific isomerases” (Max-Planck-Gesellschaft zur Forderung der, priority 1997, dated 2002).

In the test the target is T1, Pin1 (Homo sapiens, UniProt Q13526).
T1 construct: fusion protein containing full length Pin1 was bacterially expressed, purified; made in house
The test is described as follows: Precipitation with GST-Pin1 beads of synthesized phosphoproteins incubated with interphase and mitotic Xenopus extracts. It counts as binding. Further details: key: +: a week but above background interaction; ++: readily detectable interaction; +++: strong interaction. The conditions noted are these: for Interaction with Pin1, Mitotic: mitotic Xenopus extracts. As for the experimental part:
The binding between Pin1 and all selected mitotic phosphoproteins was assayed by incubating synthesized proteins with interphase and mitotic Xenopus extracts, followed by precipitation with GST-Pin1beads. The Pin1 interactions with those proteins indicated with * were also confirmed by GST-Pin1 pull-down assay from endogenous interphase and mitotic HeLa cell extracts. +, a week but above background interaction; ++, readily detectable interaction; +++, strong interaction.
The mitotic phosphoproteins were translated in vitro using the TNT coupled transcription/translation kit (Promega) in a total volume of 10 μl in the presence of 8 μCi [^35S]methionine (1000 Ci/mmol) for 2 h at 30° C. They were then incubated in xenopus interphase and mitotic extracts as described (Stukenberg et al., 1997). These incubated clones were precipitated by Pin1 beads as described below. The Xenopus Mos and Weel clones were a kind gift of M. Murakami, G, F. Woude and J. Cooper; the Xenopus Cdc25 clone was a generous gift of W. Dunphy, T3 and T3S2 Cdc25 mutants were kindly provided by J. Maller (Izumi and Maller, 1993).
To detect Pin1-binding proteins, either HeLa cells were lysed in or Xenopus extracts were diluted in a buffer (buffer A) containing 50 mM Tris-HCl, pH 8.0, 200 mM NaCl, 100 mM NaF, 1 mM sodium orthovanadate, 10% glycerol, 1% Triton X100, 10 μg/ml aprotinin, 50 μg/ml phenylmethylsulfonyl fluoride and 1 mM DTT. The lysates were preclarified with boiled S. aureus bacteria (CalBiochem) and then incubated with 10 μl of agarose beads containing various GST-Pin1 proteins or control GST for 2 h at 4° C. The precipitated proteins were washed 5 times in the same buffer and subjected to immunoblotting analysis. Immunoprecipitation and immunoblotting analysis using MPM-2 antibody (Davis et al. 1983), which was kindly provided by J. Kuang, Pin1 antibodies (Lu et al., 1996, kindly provided by M. White or newly generated), anti-phospho.Tyr antibody (UBI), anti-Cdc25C (Ogg, et al., 1994) (from H. Piwnica-Worms and Santa Cruz Biotechnology), anti-Cdc27, anti-Plk1 (Zymed), anti-Cdc2 (Solomon, M. J., M. Glotzer, T. H. Lee, M. Philippe and M. W. Kirschner. Cell 63:1013-1024 (1991), anti-human Myt1, anti-human cyclin B1 and anti-Xenopus cyclin B were performed, as described previously in Lu and Hunter, 1995; Lu et al., 1996).
To gain a sense of the generality of the interaction between Pin1 and mitotic phosphoproteins and to confirm the Pin1 interaction with target proteins is indeed mediated by phosphorylation, the ability of Pin1 to bind other known mitotic phosphoproteins and a set of mitotic phosphoproteins identified by a systematic phosphoprotein screen (Stukenberg et al., Curr Biol 7:338-348 (1997). Proteins synthesized in vitro were phosphorylated in a cell cycle specific manner by incubating them in either Xenopus interphace or mitotic extracts. These labeled protein were subsequently incubated with GST-Pin1 beads that were extensively washed and the bound proteins analyzed by SDS-PAGE. To validate this method, Cdc25 was first tested. Again, the mitotically phosphorylated form of in vitro translated Cdc25 could be precipitated by GST-Pin1 beads. However, Cdc25 was not recognized by Pin1 if it was incubated in interphase extracts. […] Out of the 13 mitotic phosphoproteins examined, Pin1 bound 10 in a mitosis and phosphorylation-dependent manner (summarized in Table 1), including Weel, MP75 and MP110, MP75 and MP110 are Xenopus proteins related to microtubule-associated protein E-MAP-115 and the fission yeast G2 transcription factor Cdc5, respectively.

T1 sequence (Q13526 whole entry, the tested form may be a part): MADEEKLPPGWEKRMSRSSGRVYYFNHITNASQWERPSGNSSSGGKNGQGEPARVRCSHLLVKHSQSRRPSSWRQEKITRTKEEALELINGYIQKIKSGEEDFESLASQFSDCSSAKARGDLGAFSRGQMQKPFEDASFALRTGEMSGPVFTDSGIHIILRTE

B1: Plx1: mitotic phosphoprotein (protein)
chain: MAQVAGKKLTVAPEAAKPPGIPGSSSAVKEIPEILVDPRTRRRYLRGRFLGKGGFAKCYEITDLESREVFAGKIVPKTMLLKPHQKDKMTMEIAIQRSLDHRHVVGFHGFFEDNDFVYVVLELCRRRSLLELHKRRKAVTEPEARYYLKQTISGCQYLHSNRVIHRDLKLGNLFLNDEMEVKIGDFGLATKVEYDGERKKTLCGTPNYIAPEVLGKKGHSFEVDIWSIGCIMYTLLVGKPPFETSCLKETYMRIKKNEYSIPKHINPVAAALIQKMLRSDPTSRPTIDDLLNDEFFTSGYIPSRLPTTCLTVPPRFSIAPSTIDQSLRKPLTAINKGQDSPLVEKQVAPAKEEEMQQPEFTEPADCYLSEMLQQLTCLNAVKPSERALIRQEEAEDPASIPIFWISKWVDYSDKYGLGYQLCDNSVGVLFNDSTRLIMYNDGDSLQYIERNNTESYLNVRSYPTTLTKKITLLKYFRNYMSEHLLKAGANTTPREGDELARLPFLRTWFRTRSAIILHLSNGTVQINFFQDHTKIILCPLMAAVSYIDEKREFRTYKLSLIQEFGCCKELASRLRYARTMVEKLQSSKSAVAHVKASA
On to B1, for which the “Interaction with Pin1, Mitotic” value is “+++”.

B2: Mos: mitotic phosphoprotein, Xenopus Mos clone (protein)
chain: MPSPIPVERFLPRDLSPSIDLRPCSSPLELSHRKLPGGLPACSGRPRLLPPRLAWCSIDWEQVLLLEPLGSGGFGSVYRATYRGETVALKKVKRSTKNSLASRQSFWAELNAARLRHPHVVRVVAASASCPGDPGCPGTIIMEYTGTGTLHQRIYGRSPPLGAEICMRYARHVADGLRFLHRDGVVHLDLKPANVLLAPGDLCKIGDFGCSQRLREGDEAAGGEPCCTQLRHVGGTYTHRAPELLKGEPVTAKADIYSFAITLWQMVSRELPYTGDRQCVLYAVVAYDLRPEMGPLFSHTEEGRAARTIVQSCWAARPQERPNAEQLLERLEQECAMCTGGPPSCSPESNAPPPLGTGL
B2: the “Interaction with Pin1, Mitotic” value is recorded as “++”. The “Interaction with Pin1, Interphase” value (interphase Xenopus extracts) is “+”.

B3: Cdc25: mitotic phosphoprotein, phosphatase; Xenopus Cdc25 clone translated in vitro (protein)
chain: STELFSSTREEGSSGSGPSFRSNQRKMLNLLLERDTSFTVCPDVPRTPVGKFLGDSANLSILSGGTPKRCLDLSNLSSGEITATQLTTSADLDETGHLDSSGLQEVHLAGMNHDQHLMKCSPAQLLCSTPNGLDRGHRKRDAMCSSSANKENDNGNLVDSEMKYLGSPITTVPKLDKNPNLGEDQAEEISDELMEFSLKDQEAKVSRSGLYRSPSMPENLNRPRLKQVEKFKDNTIPDKVKKKYFSGQGKLRKGLCLKKTVSLCDITITQMLEEDSNQGHLIGDFSKVCALPTVSGKHQDLKYVNPETVAALLSGKFQGLIEKFYVIDCRYPYEYLGGHIQGALNLYSQEELFNFFLKKPIVPLDTQKRIIIVFHCEFSSERGPRMCRCLREEDRSLNQYPALYYPELYILKGGYRDFFPEYMELCEPQSYCPMHHQDHKTELLRCRSQSKVQEGERQLREQIALLVKDMSP
On to B3, for which the “Interaction with Pin1, Mitotic” value is given as “+++”.
